In PMC10773802, “Electrochemical aptasensor fabricated by anchoring recognition aptamers and immobilizing redox probes on bipolar silica nanochannel array for reagentless detection of carbohydrate antigen 15-3”:

Target: carbohydrate antigen 15-3 (CA15-3) (UniProt P15941 24-1097)
Test: electrochemical aptasensor (DPV, CV, EIS); aptamer immobilized on bp-SNA/ITO with Co(bpy)3 2+ probe, BSA-blocked; linear 0.001-500 U/mL, LOD 0.13 mU/mL (not a Kd); 0.01 M PBS (sodium phosphate), pH 7.4; CA15-3 incubation 80 min at 4 °C; BSA-blocked electrode (0.1 wt%)
Settings: protein: commercial

carbohydrate antigen 15-3 (CA15-3), sequence (P15941 24-1097): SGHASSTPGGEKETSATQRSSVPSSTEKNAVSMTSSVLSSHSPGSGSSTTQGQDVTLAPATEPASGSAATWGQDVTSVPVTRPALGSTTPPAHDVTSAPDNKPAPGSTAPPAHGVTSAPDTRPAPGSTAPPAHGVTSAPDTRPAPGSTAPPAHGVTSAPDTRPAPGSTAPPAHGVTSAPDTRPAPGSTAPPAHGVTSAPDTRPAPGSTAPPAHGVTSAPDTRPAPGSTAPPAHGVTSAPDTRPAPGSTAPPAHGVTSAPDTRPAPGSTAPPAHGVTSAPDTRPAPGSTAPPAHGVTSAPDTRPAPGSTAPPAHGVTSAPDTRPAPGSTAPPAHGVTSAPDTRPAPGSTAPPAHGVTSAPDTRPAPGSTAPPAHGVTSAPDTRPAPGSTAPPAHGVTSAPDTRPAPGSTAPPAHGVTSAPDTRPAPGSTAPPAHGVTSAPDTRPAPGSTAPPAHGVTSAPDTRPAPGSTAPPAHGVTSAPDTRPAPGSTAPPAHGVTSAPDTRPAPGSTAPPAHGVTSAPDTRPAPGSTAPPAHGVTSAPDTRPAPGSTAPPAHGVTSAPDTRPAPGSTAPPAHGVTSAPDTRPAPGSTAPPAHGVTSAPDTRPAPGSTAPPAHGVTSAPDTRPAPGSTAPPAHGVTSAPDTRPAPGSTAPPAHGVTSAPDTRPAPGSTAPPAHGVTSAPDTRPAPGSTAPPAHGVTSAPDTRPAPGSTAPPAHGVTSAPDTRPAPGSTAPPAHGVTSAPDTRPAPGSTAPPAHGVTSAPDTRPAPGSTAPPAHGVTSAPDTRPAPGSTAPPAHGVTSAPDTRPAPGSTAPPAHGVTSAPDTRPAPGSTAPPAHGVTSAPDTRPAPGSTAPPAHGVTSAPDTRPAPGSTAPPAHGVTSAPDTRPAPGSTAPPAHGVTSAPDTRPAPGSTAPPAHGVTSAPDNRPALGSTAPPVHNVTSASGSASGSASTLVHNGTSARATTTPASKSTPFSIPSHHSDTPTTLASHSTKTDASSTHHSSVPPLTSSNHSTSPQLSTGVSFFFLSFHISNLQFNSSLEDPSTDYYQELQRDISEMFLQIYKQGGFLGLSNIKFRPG

## CTTCCTCCCTGAAGTGAATATGACAGATCACAACTTCCCTCCTTC (ssDNA, 5'-NH2) [CA15-3 aptamer (amino-modified)]
  binding result: binds
